Data published in article PMC4041461, “Identification and characterization of RNA guanine-quadruplex binding proteins”.

Legend:
Δnucleolin = Δnucleolin (Homo sapiens, UniProt P19338 284-710, del1-283); test: SPR; SPR: 25 °C, 1:10 mixture of binding buffer (10 mM Tris-HCl pH 7.5, 150 mM KCl) and HBS-EP (10 mM HEPES pH 7.4, 150 mM NaCl, 3 mM EDTA, 0.005% P20), protein immobilized; pull-down: RNA on streptavidin beads blocked in 10 mM Tris-HCl pH 7.5, 100 mM KCl, 0.1 mM EDTA, 1 mM DTT, 0.01% Triton X-100, BSA, tRNA; extract 1 h at 30 °C, elution 400-2600 mM KCl; details: protein: recombinant, tags: N-terminal His-tag (pET28a), label: biotin
Chain of Δnucleolin (P19338 284-710, stated change not applied): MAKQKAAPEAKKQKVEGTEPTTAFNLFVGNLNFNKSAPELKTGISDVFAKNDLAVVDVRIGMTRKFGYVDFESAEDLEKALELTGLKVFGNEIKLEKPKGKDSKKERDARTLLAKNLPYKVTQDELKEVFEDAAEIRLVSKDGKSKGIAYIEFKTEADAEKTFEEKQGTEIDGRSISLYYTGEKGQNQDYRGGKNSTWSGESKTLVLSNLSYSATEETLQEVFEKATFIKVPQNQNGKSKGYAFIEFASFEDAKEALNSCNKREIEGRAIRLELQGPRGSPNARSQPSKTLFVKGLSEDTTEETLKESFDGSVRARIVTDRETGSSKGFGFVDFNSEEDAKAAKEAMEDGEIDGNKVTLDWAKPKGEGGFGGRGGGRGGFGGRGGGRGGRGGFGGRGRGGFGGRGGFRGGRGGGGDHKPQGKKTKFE

U2AF65 = U2AF65 (Homo sapiens, UniProt P26368 1-475); test: as above; details: protein: recombinant, tags: N-terminal His-tag (pET28a), label: biotin
Chain of U2AF65 (P26368 whole entry, one chain of several): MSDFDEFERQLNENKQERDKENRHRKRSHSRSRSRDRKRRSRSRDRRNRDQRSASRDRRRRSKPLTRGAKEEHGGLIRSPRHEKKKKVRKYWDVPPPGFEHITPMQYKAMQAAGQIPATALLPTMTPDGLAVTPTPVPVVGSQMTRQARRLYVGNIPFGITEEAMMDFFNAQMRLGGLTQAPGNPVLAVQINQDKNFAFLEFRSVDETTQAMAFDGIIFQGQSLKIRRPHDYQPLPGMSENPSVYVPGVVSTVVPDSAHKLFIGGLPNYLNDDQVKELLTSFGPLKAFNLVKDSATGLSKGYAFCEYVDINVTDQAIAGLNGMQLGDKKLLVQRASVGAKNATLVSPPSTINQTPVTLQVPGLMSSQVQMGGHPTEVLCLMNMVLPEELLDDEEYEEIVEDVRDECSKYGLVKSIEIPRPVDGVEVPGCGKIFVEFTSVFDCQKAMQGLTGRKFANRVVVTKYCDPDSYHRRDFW

EFHD2 = molecular target: T1, EFHD2 (Homo sapiens, UniProt Q96C19 1-240); test: SPR; 100 nM RNA; SPR: 25 °C, 1:10 mixture of binding buffer (10 mM Tris-HCl pH 7.5, 150 mM KCl) and HBS-EP (10 mM HEPES pH 7.4, 150 mM NaCl, 3 mM EDTA, 0.005% P20), protein immobilized; pull-down: RNA on streptavidin beads blocked in 10 mM Tris-HCl pH 7.5, 100 mM KCl, 0.1 mM EDTA, 1 mM DTT, 0.01% Triton X-100, BSA, tRNA; extract 1 h at 30 °C, elution 400-2600 mM KCl; details: protein: recombinant; tags: N-terminal His-tag (pET28a); label: biotin; parallel G4, several variants possible
T1 sequence: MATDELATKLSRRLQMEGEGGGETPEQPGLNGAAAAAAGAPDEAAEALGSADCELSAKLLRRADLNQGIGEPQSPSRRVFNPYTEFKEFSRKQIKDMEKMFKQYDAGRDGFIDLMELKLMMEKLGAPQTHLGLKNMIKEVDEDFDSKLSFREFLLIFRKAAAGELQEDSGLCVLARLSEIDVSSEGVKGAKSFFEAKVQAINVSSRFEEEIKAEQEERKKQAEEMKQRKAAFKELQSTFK

SRSF1 = SRSF1 (Homo sapiens, UniProt Q07955 1-248); test: as above; details: protein: recombinant; tags: N-terminal His-tag (pET28a); label: biotin; parallel G4, several variants possible
Chain of SRSF1 (Q07955 whole entry): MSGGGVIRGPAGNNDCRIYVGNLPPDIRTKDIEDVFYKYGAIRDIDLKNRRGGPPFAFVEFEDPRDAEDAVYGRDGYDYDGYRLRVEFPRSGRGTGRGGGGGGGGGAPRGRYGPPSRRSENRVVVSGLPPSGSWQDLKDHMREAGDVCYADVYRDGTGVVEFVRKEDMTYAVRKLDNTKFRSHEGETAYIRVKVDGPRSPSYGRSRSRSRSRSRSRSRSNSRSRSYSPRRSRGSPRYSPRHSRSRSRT

[1] = parallel G4, several variants possible

Question: With AACGAGAGAGAGAGAGAGAGAGAGAGA (ssRNA, 3' biotin) [MMP16 mut] as the binder, how does the Kd (Δnucleolin; no G4) read?
Answer: 0.6 nM

Question: Which Kd (U2AF65; [1]) does the source give for AGCCGGGGGCUGGGCGGGGACCGGGCUUGU (structured_RNA, 3' biotin) [ARPC2 GQ] here?
Answer: 1 nM

Question: And the Kd (Δnucleolin; [1])?
Answer: 0.6 nM

Question: Does AGCCGGGGGCUGGGCGGGGACCGGGCUUGU (structured_RNA, 3' biotin) [ARPC2 GQ] bind (EFHD2)?
Answer: binds

Question: Does AGCCGGGGGCUGGGCGGGGACCGGGCUUGU (structured_RNA, 3' biotin) [ARPC2 GQ] bind (SRSF1)?
Answer: binds

Question: Which Kd (Δnucleolin; no G4) does the source give for AGCCGUAGACUGAGCGAAGACCGAGCUUGU (ssRNA, 3' biotin) [ARPC2 mut] here?
Answer: 83 nM

Question: Which Kd (U2AF65; parallel G4 (CD, UV melting)) does the source give for AACGAGGGAGGGAGGGAGAGGGAGAGA (structured_RNA, 3' biotin) [MMP16 GQ] here?
Answer: 5 nM

Question: And the Kd (Δnucleolin; parallel G4 (CD, UV melting))?
Answer: 2 nM
